Laboratory results reported in article PMC3569036 (FEBS letters, 2012).

Target: calmodulin (vertebrate CaM amino acid sequence, encoded by a rat cDNA) (rat, UniProt P0DP29 1-149)
Assay: cryo-EM structure

B1: bovine endothelial nitric oxide synthase (eNOS) with the phosphomimetic S1179D substitution (enzyme)
chain: MGNLKSVGQEPGPPCGLGLGLGLGLCGKQGPASPAPEPSRAPAPATPHAPDHSPAPNSPTLTRPPEGPKFPRVKNWELGSITYDTLCAQSQQDGPCTPRCCLGSLVLPRKLQTRPSPGPPPAEQLLSQARDFINQYYSSIKRSGSQAHEERLQEVEAEVASTGTYHLRESELVFGAKQAWRNAPRCVGRIQWGKLQVFDARDCSSAQEMFTYICNHIKYATNRGNLRSAITVFPQRAPGRGDFRIWNSQLVRYAGYRQQDGSVRGDPANVEITELCIQHGWTPGNGRFDVLPLLLQAPDEAPELFVLPPELVLEVPLEHPTLEWFAALGLRWYALPAVSNMLLEIGGLEFSAAPFSGWYMSTEIGTRNLCDPHRYNILEDVAVCMDLDTRTTSSLWKDKAAVEINLAVLHSFQLAKVTIVDHHAATVSFMKHLDNEQKARGGCPADWAWIVPPISGSLTPVFHQEMVNYILSPAFRYQPDPWKGSATKGAGITRKKTFKEVANAVKISASLMGTLMAKRVKATILYASETGRAQSYAQQLGRLFRKAFDPRVLCMDEYDVVSLEHEALVLVVTSTFGNGDPPENGESFAAALMEMSGPYNSSPRPEQHKSYKIRFNSVSCSDPLVSSWRRKRKESSNTDSAGALGTLRFCVFGLGSRAYPHFCAFARAVDTRLEELGGERLLQLGQGDELCGQEEAFRGWAKAAFQASCETFCVGEEAKAAAQDIFSPKRSWKRQRYRLSTQAEGLQLLPGLIHVHRRKMFQATVLSVENLQSSKSTRATILVRLDTAGQEGLQYQPGDHIGICPPNRPGLVEALLSRVEDPPPPTESVAVEQLEKGSPGGPPPSWVRDPRLPPCTLRQALTFFLDITSPPSPRLLRLLSTLAEEPSEQQELETLSQDPRRYEEWKWFRCPTLLEVLEQFPSVALPAPLLLTQLPLLQPRYYSVSSAPNAHPGEVHLTVAVLAYRTQDGLGPLHYGVCSTWLSQLKTGDPVPCFIRGAPSFRLPPDPYVPCILVGPGTGIAPFRGFWQERLHDIESKGLQPAPMTLVFGCRCSQLDHLYRDEVQDAQERGVFGRVLTAFSREPDSPKTYVQDILRTELAAEVHRVLCLERGHMFVCGDVTMATSVLQTVQRILATEGDMELDEAGDVIGVLRDQQRYHEDIFGLTLRTQEVTSRIRTQDFSLQERHLRGAVPWAFDPPGPDTPGP
binding result: binds
